The values below come from US20210155712A1.

The target of assay [1] is recombinant human HER3 (human) (UniProt P21860). The assay is described as follows: BLI (Octet QK384), antibody on AHC sensors, His-tagged human HER3 in solution, absence of human NRG1. (In general: BLI is a label-free optical method that tracks binding on a fibre tip over time.)
Assay [2] addresses human HER3 expressed on cells (human) (UniProt P21860). Put plainly: flow cytometry, HEK293T HER3 O/E cells, 10 ug antibody, FITC channel.
Assay [3] deals with human HER3:human NRG1 complex (human) (UniProt Q02297). The assay is described as follows: BLI (Octet QK384), antibody on AHC sensors, human HER3-NRG1 complex (1:1 molar ratio) in solution, presence of human NRG1.

Sequence of anti-HER3 antibody clone LJM716 (VH): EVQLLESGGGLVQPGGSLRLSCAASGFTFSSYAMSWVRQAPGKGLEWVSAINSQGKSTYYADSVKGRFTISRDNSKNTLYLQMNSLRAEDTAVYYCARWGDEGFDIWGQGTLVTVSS
Sequence of anti-HER3 antibody clone LJM716 (VL): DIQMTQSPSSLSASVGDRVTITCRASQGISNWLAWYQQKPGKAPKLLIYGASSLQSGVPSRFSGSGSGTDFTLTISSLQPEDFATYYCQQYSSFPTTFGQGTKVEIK

In the case of anti-HER3 antibody clone LJM716, the Kd (as a rule, a measure of binding affinity in units of concentration) in assay [1] is less than 0.001 nM; in assay [3], 16.8 nM. The % Parent (HER3 positive) in assay [2] was found to be 74.4%.
